Source: patent US8586570

PKCθ, sequence (Q04759 whole entry): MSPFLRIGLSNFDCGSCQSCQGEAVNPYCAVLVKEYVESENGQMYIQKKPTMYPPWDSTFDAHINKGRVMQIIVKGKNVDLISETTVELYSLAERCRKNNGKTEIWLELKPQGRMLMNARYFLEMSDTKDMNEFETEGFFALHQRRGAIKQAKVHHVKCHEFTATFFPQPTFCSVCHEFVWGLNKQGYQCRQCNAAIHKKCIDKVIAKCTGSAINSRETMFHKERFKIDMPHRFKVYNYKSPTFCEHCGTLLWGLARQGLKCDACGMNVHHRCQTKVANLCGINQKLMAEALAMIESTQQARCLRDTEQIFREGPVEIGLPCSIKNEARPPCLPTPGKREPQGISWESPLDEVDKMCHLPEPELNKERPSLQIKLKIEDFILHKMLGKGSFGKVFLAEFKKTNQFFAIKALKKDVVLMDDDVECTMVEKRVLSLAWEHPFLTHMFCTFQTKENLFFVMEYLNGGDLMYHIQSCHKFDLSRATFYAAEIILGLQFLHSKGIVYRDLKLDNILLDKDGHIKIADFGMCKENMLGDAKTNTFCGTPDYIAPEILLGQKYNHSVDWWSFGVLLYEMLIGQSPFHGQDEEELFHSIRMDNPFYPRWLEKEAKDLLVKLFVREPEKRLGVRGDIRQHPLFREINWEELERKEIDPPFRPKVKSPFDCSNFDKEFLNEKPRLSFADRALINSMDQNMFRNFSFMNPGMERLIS

## PKCδ
PKCα-S10
  phosphorylation activity (1 µM peptide, 2 ng kinase): no activity is observed with PKCδ, PKCµ, and PKCν

## PKCγ
PKCα-S10
  phosphorylation activity (1 µM peptide, 2 ng kinase): PKCβII and PKCγ have comparable activities to that of PKCα

## PKCβII
PKCα-S10
  phosphorylation activity (1 µM peptide, 2 ng kinase): PKCβII and PKCγ have comparable activities to that of PKCα

## PKCε
PKCα-S10
  phosphorylation activity (1 µM peptide, 2 ng kinase): very little activity is detected with PKCε, PKCζ, PKCη and PKCι

## PKCα
PKCα-S9
  KM: 0.093 µM
  Vmax (µmol min^-1 mg^-1) (µmol min^-1 mg^-1): 1.8
  Vmax/KM: 160000 min⁻¹ mg⁻¹
PKCα-S10
  KM: 0.12 µM
  Vmax (µmol min^-1 mg^-1) (µmol min^-1 mg^-1): 2.2
  Vmax/KM: 149000 min⁻¹ mg⁻¹
PKCα-S1
  KM: 8.6 µM
  Vmax (µmol min^-1 mg^-1) (µmol min^-1 mg^-1): 5.9
  Vmax/KM: 6200 min⁻¹ mg⁻¹

## PKCβI
PKCα-S10
  phosphorylation activity (1 µM peptide, 2 ng kinase): PKCβI and PKCθ are slightly more active than PKCα

## PKCη
PKCα-S10
  phosphorylation activity (1 µM peptide, 2 ng kinase): very little activity is detected with PKCε, PKCζ, PKCη and PKCι

## PKCθ
PKCα-S10
  phosphorylation activity (1 µM peptide, 2 ng kinase): PKCβI and PKCθ are slightly more active than PKCα
